Laboratory results as given in publication PMC3310821, “Inactivation of Staphylococcal Phenol Soluble Modulins by Serum Lipoprotein Particles” (PLoS Pathogens, 2012).
Ends that are not written are not given here. * marks the point of attachment. For = O=C*

Target: the molecule itself
Test: SEC; 100 µg/ml PSMα3-FITC on Superdex 200 10/300GL equilibrated with PBS; OD492 nm

B1: FITC-labeled PSMα3 (peptide)
peptide: For-MEFVAKLFKFFKDLLGKFLGNN
modifications: also: FITC label, site not given here
notes: labeled by incubating 1 mg/ml PSMα3 with 100 µg/ml FITC in 0.1 M sodium carbonate buffer pH 9.6; also called PSMα3-FITC
- binding result: binds
